Bounds are passed on as bounds.

Our source for the difference in co-immunoprecipitated level between lysates with GTP-γS and with GDP values is PMC2714072.

Experiment [1] has as its target SYT/S (short isoform of SYT/SS18), monkey (Cos-1) (monkey (endogenous in Cos-1)). Put plainly: co-IP; endogenous proteins; post-nuclear (cytosolic) lysates of U2OS or Cos-1 cells in MLB buffer (25 mM HEPES pH 7.5, 150 mM NaCl, 1% Igepal CA-630, 10 mM MgCl2, 1 mM EDTA, 2% glycerol, 1 mM ATP); 1 µg pSYT or SYT/L-specific antibody overnight, Protein G PLUS-Agarose, 3 washes with RIPA buffer; bands stained with SYPRO Ruby, excised and identified by nano LC/MS/MS; controls: IgG and lysates of panSYT229 RNAi cells; Cos-1 lysates also pre-incubated with 100 µM GTP-γS or 1 mM GDP for 30 min at 30°C.

For experiment [2], the target named is SYT/L (long isoform of SYT/SS18), monkey (Cos-1) (monkey (endogenous in Cos-1)). Described as above.

“actin, monkey (Cos-1) (from UniProt Q76N69 1-375) (natural protein)”: the difference in co-immunoprecipitated level between lysates with GTP-γS and with GDP in experiment [1] and in experiment [2] was less than 5% in each case.
